Reference: patent US8138307 (CEDARS SINAI MEDICAL CENTER, dated 2012)

Experiments:
[1] = target: T1, GAL4 activation domain-MP36a fusion (pGAD10 clone MP36a) (UniProt P04386 768-881); experiment: yeast two-hybrid liquid assay (β-galactosidase)
T1 construct: Prey clone from a human brain cDNA library

[2] = target: T2, GAL4 activation domain-MP23a fusion (pGAD10 clone MP23a, partial synapsin-like protein) (human); experiment: yeast two-hybrid liquid assay (β-galactosidase)
T2 construct: Partial clone; also called SLP (MP23a)
T2 chain: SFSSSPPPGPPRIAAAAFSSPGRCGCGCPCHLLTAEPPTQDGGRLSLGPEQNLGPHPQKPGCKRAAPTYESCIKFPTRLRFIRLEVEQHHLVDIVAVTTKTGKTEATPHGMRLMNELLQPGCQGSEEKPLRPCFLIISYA

fold β-galactosidase activity over negative control vector pGBT9 [1]: ~20 fold | fold β-galactosidase activity over negative control vector pGBT9 [2]: ~30 fold
B1: GAL4 binding domain-parkin(1-465) fusion encoded by pGBT9-parkin(1-465) (other, UniProt P04386 1-147, looked up)
chain: MKLLSSIEQACDICRLKKLKCSKEKPKCAKCLKNNWECRYSPKTKRSPLTRAHLTEVESRLERLEQLFLLIFPREDLDMILKMDSLQDIKALLTGLFVQDNVNKDAVTDRLASVETDMPLTLRQHRISATSSSEESSNKGQRQLTVSMIVFVRFNSSHGFPVEVDSDTSIFQLKEVVAKRQGVPADQLRVIFAGKELRNDWTVQNCDLDQQSIVHIVQRPWRKGQEMNATGGDDPRNAAGGCEREPQSLTRVDLSSSVLPGDSVGLAVILHTDSRKDSPPAGSPAGRSIYNSFYVYCKGPCQRVQPGKLRVQCSTCRQATLTLTQGPSCWDDVLIPNRMSGECQSPHCPGTSAEFFFKCGAHPTSDKETSVALHLIATNSRNITCITCTDVRSPVLVFQCNSRHVICLDCFHLYCVTRLNDRQFVHDPQLGYSLPCVAGCPNSLIKELHHFRILGEEQYNRYQQYGAEECVLQMGGVLCPRPGCGAGLLPEPDQRKVTCEGGNGLGCGFAFCRECKEAYHEGECSAVFEASGTTTQAYRVDERAAEQARWEAASKETIKKTTKPCPRCHVPVEKNGGCMHMKCPQPQCRLEWCWNCGCEWNRVCMGDHWFDV
notes: Yeast two-hybrid bait expressed in yeast strain Y190; also called parkin bait
